Test results reported in article PMC2756588.

T1: Fus1, P11710
T1 sequence (P11710 432-512, looked up): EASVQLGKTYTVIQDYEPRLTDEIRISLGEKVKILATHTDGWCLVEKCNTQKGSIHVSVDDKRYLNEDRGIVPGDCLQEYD

T2: Sla1-2, P32790
T2 sequence (P32790 60-140, looked up): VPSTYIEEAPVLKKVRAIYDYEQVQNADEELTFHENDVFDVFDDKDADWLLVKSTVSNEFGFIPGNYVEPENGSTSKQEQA

T3: Hse1, P38753
T3 sequence (P38753 208-285, looked up): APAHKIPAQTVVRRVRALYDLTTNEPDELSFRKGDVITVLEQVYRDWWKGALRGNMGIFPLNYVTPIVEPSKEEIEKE

T4: Pex13, P80667
T4 sequence (P80667 295-386, looked up): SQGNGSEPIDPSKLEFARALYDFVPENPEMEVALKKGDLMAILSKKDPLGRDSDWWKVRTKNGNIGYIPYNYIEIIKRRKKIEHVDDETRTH

T5: Bbc1, P47068
T5 sequence (P47068 1-78, looked up): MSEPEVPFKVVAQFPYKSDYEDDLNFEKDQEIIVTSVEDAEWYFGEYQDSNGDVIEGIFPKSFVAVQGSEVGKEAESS

T6: Cyk3, Q07533
T6 sequence (Q07533 1-83, looked up): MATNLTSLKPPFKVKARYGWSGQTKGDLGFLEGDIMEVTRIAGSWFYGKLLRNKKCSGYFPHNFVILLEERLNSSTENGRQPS

T7: Abp1, P15891
T7 sequence (P15891 535-592, looked up): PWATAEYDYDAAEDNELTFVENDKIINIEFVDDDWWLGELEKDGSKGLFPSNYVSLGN

T8: Boi2, P39969
T8 sequence (P39969 32-116, looked up): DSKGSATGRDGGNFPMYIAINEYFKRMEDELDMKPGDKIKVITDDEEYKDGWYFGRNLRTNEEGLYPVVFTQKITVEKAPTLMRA

T9: Bzz1-2, P38822
T9 sequence (P38822 568-633, looked up): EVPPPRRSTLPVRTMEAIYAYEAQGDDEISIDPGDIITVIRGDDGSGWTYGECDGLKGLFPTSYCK

T10: Lsb4, P32793
T10 sequence (P32793 402-468, looked up): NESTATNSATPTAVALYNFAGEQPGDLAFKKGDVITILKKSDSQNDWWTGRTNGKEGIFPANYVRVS

T11: Bzz1-1, P38822
T11 sequence (P38822 478-572, looked up): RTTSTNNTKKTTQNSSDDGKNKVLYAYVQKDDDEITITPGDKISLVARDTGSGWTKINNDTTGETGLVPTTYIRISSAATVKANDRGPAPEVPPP

T12: Lsb1, P53281
T12 sequence (P53281 45-122, looked up): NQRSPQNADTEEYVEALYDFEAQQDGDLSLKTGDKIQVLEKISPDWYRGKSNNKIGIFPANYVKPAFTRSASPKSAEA

T13: Bud14, P27637
T13 sequence (P27637 247-328, looked up): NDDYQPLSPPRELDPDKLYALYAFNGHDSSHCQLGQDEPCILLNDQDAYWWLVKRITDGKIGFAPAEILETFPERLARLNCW

T14: Cdc25, P04821
T14 sequence (P04821 50-136, looked up): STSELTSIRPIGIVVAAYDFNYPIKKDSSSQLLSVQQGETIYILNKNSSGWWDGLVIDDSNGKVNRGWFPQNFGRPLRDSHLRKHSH

T15: Pin3, Q06449
T15 sequence (Q06449 53-122, looked up): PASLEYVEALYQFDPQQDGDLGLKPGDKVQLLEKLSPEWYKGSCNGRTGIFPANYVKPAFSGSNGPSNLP

T16: Lsb3, P43603
T16 sequence (P43603 385-451, looked up): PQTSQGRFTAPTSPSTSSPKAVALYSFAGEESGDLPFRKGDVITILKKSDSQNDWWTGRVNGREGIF

T17: Nbp2, Q12163
T17 sequence (Q12163 103-180, looked up): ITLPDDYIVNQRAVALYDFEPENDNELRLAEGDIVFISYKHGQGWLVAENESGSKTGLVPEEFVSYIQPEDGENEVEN

T18: Sla1-3, P32790
T18 sequence (P32790 344-424, looked up): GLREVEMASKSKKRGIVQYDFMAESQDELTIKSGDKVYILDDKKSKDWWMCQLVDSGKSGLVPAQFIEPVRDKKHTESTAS

T19: Myo5, Q04439
T19 sequence (Q04439 1072-1160, looked up): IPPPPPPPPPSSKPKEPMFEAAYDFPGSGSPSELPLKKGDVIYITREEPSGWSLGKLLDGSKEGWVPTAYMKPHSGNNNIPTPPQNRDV

T20: Hof1, Q05080
T20 sequence (Q05080 590-669, looked up): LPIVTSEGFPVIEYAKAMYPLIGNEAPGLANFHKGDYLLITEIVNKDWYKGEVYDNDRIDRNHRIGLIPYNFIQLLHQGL

T21: Boi1, P38041
T21 sequence (P38041 1-86, looked up): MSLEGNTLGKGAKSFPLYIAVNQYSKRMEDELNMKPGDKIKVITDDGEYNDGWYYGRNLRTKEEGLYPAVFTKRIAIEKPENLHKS


target: GST; experiment: SPOT array; settings: median of control spots 978

SPOT intensity	Binder
0	NNQRRKPLLLNIGDH
0	NFLRLLIGLPSQNEL
1	ALFRLSFFFPLDPAY

target: T1, Fus1, P11710; experiment: SPOT array; settings: median of control spots 1200

SPOT intensity	Binder
28	NNQRRKPLLLNIGDH
243	NFLRLLIGLPSQNEL
628	ALFRLSFFFPLDPAY

target: T2, Sla1-2, P32790; experiment: SPOT array; settings: median of control spots 712

SPOT intensity	Binder
0	NNQRRKPLLLNIGDH
0	NFLRLLIGLPSQNEL
4	ALFRLSFFFPLDPAY

target: T3, Hse1, P38753; experiment: SPOT array; settings: median of control spots 1727

SPOT intensity	Binder
50	NNQRRKPLLLNIGDH
10	NFLRLLIGLPSQNEL
116	ALFRLSFFFPLDPAY

target: T4, Pex13, P80667; experiment: SPOT array; settings: median of control spots 1341

SPOT intensity	Binder
0	NNQRRKPLLLNIGDH
47	NFLRLLIGLPSQNEL
93	ALFRLSFFFPLDPAY

target: T5, Bbc1, P47068; experiment: SPOT array; settings: median of control spots 796

SPOT intensity	Binder
11	NNQRRKPLLLNIGDH
156	NFLRLLIGLPSQNEL
218	ALFRLSFFFPLDPAY

target: Myo3, P36006; experiment: SPOT array; settings: median of control spots 468

SPOT intensity	Binder
0	NNQRRKPLLLNIGDH
10	NFLRLLIGLPSQNEL
44	ALFRLSFFFPLDPAY

target: T6, Cyk3, Q07533; experiment: SPOT array; settings: median of control spots 1451

SPOT intensity	Binder
1	NNQRRKPLLLNIGDH
9	NFLRLLIGLPSQNEL
13	ALFRLSFFFPLDPAY

target: Sho1, P40073; experiment: SPOT array; settings: median of control spots 1148
Sequence (P40073 287-367): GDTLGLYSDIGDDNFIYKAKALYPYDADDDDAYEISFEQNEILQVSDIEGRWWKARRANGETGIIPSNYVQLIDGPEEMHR

SPOT intensity	Binder
79	NNQRRKPLLLNIGDH
93	NFLRLLIGLPSQNEL
168	ALFRLSFFFPLDPAY

target: T7, Abp1, P15891; experiment: SPOT array; settings: median of control spots 935

SPOT intensity	Binder
56	NNQRRKPLLLNIGDH
55	NFLRLLIGLPSQNEL
142	ALFRLSFFFPLDPAY

target: T8, Boi2, P39969; experiment: SPOT array; settings: median of control spots 1161

SPOT intensity	Binder
1	NNQRRKPLLLNIGDH
6	NFLRLLIGLPSQNEL
17	ALFRLSFFFPLDPAY

target: T9, Bzz1-2, P38822; experiment: SPOT array; settings: median of control spots 4538

SPOT intensity	Binder
5	NNQRRKPLLLNIGDH
0	NFLRLLIGLPSQNEL
31	ALFRLSFFFPLDPAY

target: T10, Lsb4, P32793; experiment: SPOT array; settings: median of control spots 397

SPOT intensity	Binder
0	NNQRRKPLLLNIGDH
0	NFLRLLIGLPSQNEL
21	ALFRLSFFFPLDPAY

target: T11, Bzz1-1, P38822; experiment: SPOT array; settings: median of control spots 4446

SPOT intensity	Binder
0	NNQRRKPLLLNIGDH
2	NFLRLLIGLPSQNEL
0	ALFRLSFFFPLDPAY

target: T12, Lsb1, P53281; experiment: SPOT array; settings: median of control spots 388

SPOT intensity	Binder
0	NNQRRKPLLLNIGDH
2	NFLRLLIGLPSQNEL
49	ALFRLSFFFPLDPAY

target: T13, Bud14, P27637; experiment: SPOT array; settings: median of control spots 956

SPOT intensity	Binder
17	NNQRRKPLLLNIGDH
22	NFLRLLIGLPSQNEL
12	ALFRLSFFFPLDPAY

target: T14, Cdc25, P04821; experiment: SPOT array; settings: median of control spots 969

SPOT intensity	Binder
216	NNQRRKPLLLNIGDH
354	NFLRLLIGLPSQNEL
359	ALFRLSFFFPLDPAY

target: T15, Pin3, Q06449; experiment: SPOT array; settings: median of control spots 2171

SPOT intensity	Binder
0	NNQRRKPLLLNIGDH
15	NFLRLLIGLPSQNEL
39	ALFRLSFFFPLDPAY

target: Bem1-1, P29366; experiment: SPOT array; settings: median of control spots 4282
Sequence (P29366 55-141): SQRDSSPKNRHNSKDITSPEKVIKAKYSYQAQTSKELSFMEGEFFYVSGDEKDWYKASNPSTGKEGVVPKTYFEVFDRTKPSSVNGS

SPOT intensity	Binder
0	NNQRRKPLLLNIGDH
1	NFLRLLIGLPSQNEL
0	ALFRLSFFFPLDPAY

target: T16, Lsb3, P43603; experiment: SPOT array; settings: median of control spots 406

SPOT intensity	Binder
0	NNQRRKPLLLNIGDH
0	NFLRLLIGLPSQNEL
16	ALFRLSFFFPLDPAY

target: T17, Nbp2, Q12163; experiment: SPOT array; settings: median of control spots 357

SPOT intensity	Binder
42	NNQRRKPLLLNIGDH
84	NFLRLLIGLPSQNEL
283	ALFRLSFFFPLDPAY

target: T18, Sla1-3, P32790; experiment: SPOT array; settings: median of control spots 5475

SPOT intensity	Binder
138	NNQRRKPLLLNIGDH
0	NFLRLLIGLPSQNEL
54	ALFRLSFFFPLDPAY

target: T19, Myo5, Q04439; experiment: SPOT array; settings: median of control spots 471

SPOT intensity	Binder
0	NNQRRKPLLLNIGDH
0	NFLRLLIGLPSQNEL
17	ALFRLSFFFPLDPAY

target: T20, Hof1, Q05080; experiment: SPOT array; settings: median of control spots 4086

SPOT intensity	Binder
18	NNQRRKPLLLNIGDH
3	NFLRLLIGLPSQNEL
33	ALFRLSFFFPLDPAY

target: Bem1-2, P29366; experiment: SPOT array; settings: median of control spots 4347
Sequence (P29366 139-227): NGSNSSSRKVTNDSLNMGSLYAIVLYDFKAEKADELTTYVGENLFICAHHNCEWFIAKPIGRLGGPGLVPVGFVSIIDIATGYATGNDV

SPOT intensity	Binder
25	NNQRRKPLLLNIGDH
0	NFLRLLIGLPSQNEL
27	ALFRLSFFFPLDPAY

target: T21, Boi1, P38041; experiment: SPOT array; settings: median of control spots 1162

SPOT intensity	Binder
5	NNQRRKPLLLNIGDH
122	NFLRLLIGLPSQNEL
192	ALFRLSFFFPLDPAY

target: Rvs167, P39743; experiment: SPOT array; settings: median of control spots 2707
Sequence (P39743 419-482): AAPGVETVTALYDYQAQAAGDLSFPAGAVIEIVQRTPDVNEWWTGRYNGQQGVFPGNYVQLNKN

SPOT intensity	Binder
0	NNQRRKPLLLNIGDH
0	NFLRLLIGLPSQNEL
8	ALFRLSFFFPLDPAY
